Assay results from patent US20050232926A1, “Antibodies specific for cancer associated antigen SM5-1 and uses thereof” (Oncomax Acquisition Corp., priority 2003, published 2005).
Residues, ends and D or L forms follow the SMILES beside them. *: point of attachment. Cbz = O=C(OCc1ccccc1)*; CH2F = FC*

Columns and labels:
QYC cells = experiment: Inhibition of huSM5-1 induced apoptosis by caspase inhibitors; assay type: cell-based, human; conditions: QYC cells incubated with caspase inhibitor at 50 mol/l for 2 h, then 50 ng/ml huSM5-1 antibody
Description: To determine whether caspase is involved in huSM5-1 antibody induced apoptosis, a variety of caspase inhibitors were tested to observe the inhibitory rate of apoptosis. The caspase inhibitors tested included common caspase inhibitor (Z-VAD-FMK), caspase-1 inhibitor (Z-WEHD-FMK), caspase-2 inhibitor (Z-VDVAD-FMK), caspase-3 inhibitor (Z-DEVD-FMK), caspase-4 inhibitor (Z-YVAD-FMK), caspase-6 inhibitor (Z-VEID-FMK), caspase-8 inhibitor (Z-IETD-FMK), caspase-9 inhibitor (Z-LEHD-FMK), caspase-10 inhibitor (Z-AVED-FMK), caspase-13 inhibitor (Z-LEED-FMK). QYC cells were incubated with caspase inhibitor at 50 mol/l for 2 h. QYC cells were then treated with 50 ng/ml huSM5-1 antibody. The inhibitory rates of these inhibitors were: 72% for pan-caspase inhibitor, 52% for caspase-10 inhibitor, 28% for caspase-6 inhibitor, 27% for caspase-1 inhibitor, 17% for caspase-8 inhibitor, 15% for caspase-13 inhibitor, 14% for caspase-4 inhibitor, 5% for caspase-9 inhibitor, 1% for caspase-2 inhibitor, 1% for caspase-3 inhibitor.

melanoma cell line A2058 [1] = experiment: Viable cell count after huSM5-1 treatment; assay type: cell-based, human; conditions: final volume 500 μl, 24 h, relative to wells without huSM5-1
Description: (§1) The melanoma cell line A2058 was expanded to 10^6/ml in RPMI-1640 culture medium. The cell suspension (20 μl) and different amount of huSM5-1 (0, 1, 5, 10, 20, 50, 100 μl) were added into each well of the 96 well plate. The antibody huSM5-1 was diluted in RPMI-1640 medium containning 10% FCS to reach a final concentration of 1 μg/μl before it was added into the well. RPMI-1640 medium containing 10% FCS was added to each well to make a final volume of 500 μl in each well. Each condition was performed in triplicate. Cells were incubated at 37° C. in a humidified incubator at 5% CO2 for 24 h. At the end of the incubation, cells were suspended and viable cells were examined under microscope or assessed using MTT.
Viable cells in 0.2 ml cell suspension from each well were counted. Viable cells are expressed as percentage of viable cells compared to the wells without addition of huSM5-1.

caspase-10 [2] = experiment: Caspase-10 colorimetric activity assay in huSM5-1 treated QYC cells; assay type: cell-based, human
Description: (§2) To further confirm that huSM5-1 induced apoptosis is caspase-10 related, caspase-10 color comparing analysis kit was used to examine the increase of caspase-10 bioactivity in QYC and XJC cells. Caspase-10 activity was examined with caspase-10 analysis kit (R&D, USA) according to manufacture's instruction. Cells were incubated with 50 ng/ml huSM5-1 antibody for a certain period of time. Cells were then centrifuged and lysed in a lysis buffer (25 ul/10^6 cells) on ice for 10 min. The lysates were centrifuged, and the supernatant was transferred into new tubes and kept on ice. The enzyme activity of caspase was examined on 96-well micro-titer plate. Each reaction included 50 μl supernatant from cell lysate, 50 μl 2× reaction buffer, 10 μl fresh DTT storage solution. In addition, 5 ul caspase-10 color-comparing substrate (AEVD-pNA) was added into the reaction. The plate was incubated at 37° C. for 1-2 h and absorbance at 405 nm was then measured. The increase of caspase-10 related activity was calculated according to the following equation: Caspase-10 activity (%)=(B−C)/(A−C)×100%
(§3) “A” represents OD value of supernatant from cell lysates without huSM5-1 antibody treatment; “B” represents OD value of supernatant from cell lysate treated with huSM5-1; “C” represents OD value of negative control. Each test was done in triplicate.

[3] = test system: hepatocellular carcinoma cell line QYC; experiment: Cell growth inhibition by huSM5-1, MTT assay; assay type: cell-based, human
Description: Cell growth inhibition by huSM5-1 antibody was tested using MTT assay. MTT assay is based on the principle that viable cells can reduce yellow MTT into blue purple crystals. Cells of interest (1×10^3) were incubated with various concentrations of antibodies. After a period of time, 20 μl MTT (0.5 mg/ml) was added into the cell culture medium and was incubated for 2 h. After the incubation, culture medium was removed and 150 μl DMSO was added to solubilize the MTT precipitate. The reduced MTT was examined by measuring absorbance at 490 nm using Benchmark optical absorption reading machine (Bio-Rad Laboratories). The cell growth inhibition was calculated according to the following equation: Inhibition (%)=(B−C)/(A−C)×100
“A” represents the OD value of cells without huSM5-1 treatment; “B” represents the OD value of huSM5-1 treated cells; and “C” represents the OD value of negative control. Each condition was performed in triplicate.
Growth inhibition by huSM5-1 were tested in four tumor cell lines (hepatocellular carcinoma cell QYC and XJC, breast cancer cell line MDA-MB-231, and melanoma cell line CRL-1872) using MTT assay. Cells were treated with different amount of huSM5-1 (50 ng/ml, 10 ng/ml, 1 ng/ml) for 24 h, 48 h, 72 h, and 96 h. The most inhibition occurred when the concentration of the antibody was at 50 ng/ml and after 72 h treatment.

melanoma cell line A2058 [4] = experiment: MTT assay of viable cells after huSM5-1 treatment; assay type: cell-based, human; conditions: 570 nm, final volume 500 μl, 24 h
Description: as §1
MTT solution (5 mg/ml) was added into 0.2 ml cell suspension describe above at 1:10 dilution. The cells were then incubated at 37° C. for 30 min and optical adsorption at 570 nm for each sample was read.

caspase-10 [5] = experiment: Caspase-10 colorimetric activity assay in huSM5-1 treated XJC cells; assay type: cell-based
Description: as §2, §3

In the case of CC[C@H](C)[C@H](NC(=O)OCc1ccccc1)C(=O)N[C@@H](CCC(=O)OC)C(=O)N[C@H](C(=O)N[C@@H](CC(=O)OC)C(=O)CF)[C@@H](C)O [caspase-8 inhibitor, Z-IETD-FMK] (Cbz-IE(OMe)TD(OMe)-CH2F), the “inhibitory rate of huSM5-1 induced apoptosis” value (shortened to “inhibitory rate”) (QYC cells) is reported as 17%.

With COC(=O)C[C@H](NC(=O)[C@H](C)NC(=O)[C@@H](NC(=O)[C@H](Cc1ccc(O)cc1)NC(=O)OCc1ccccc1)C(C)C)C(=O)CF [caspase-4 inhibitor, Z-YVAD-FMK] the “inhibitory rate” value (QYC cells) was 14%.

With COC(=O)CC[C@H](NC(=O)[C@H](CC(C)C)NC(=O)OCc1ccccc1)C(=O)N[C@@H](Cc1cnc[nH]1)C(=O)N[C@@H](CC(=O)OC)C(=O)CF [caspase-9 inhibitor, Z-LEHD-FMK] (Cbz-LE(OMe)HD(OMe)-CH2F) the “inhibitory rate” value (QYC cells) was 5%.

In the case of COC(=O)CC[C@H](NC(=O)[C@H](Cc1c[nH]c2ccccc12)NC(=O)OCc1ccccc1)C(=O)N[C@@H](Cc1cnc[nH]1)C(=O)N[C@@H](CC(=O)OC)C(=O)CF [caspase-1 inhibitor, Z-WEHD-FMK] (Cbz-WE(OMe)HD(OMe)-CH2F), the “inhibitory rate” value (QYC cells) is reported as 27%.

In the case of CC[C@H](C)[C@H](NC(=O)[C@H](CCC(=O)OC)NC(=O)[C@@H](NC(=O)OCc1ccccc1)C(C)C)C(=O)N[C@@H](CC(=O)OC)C(=O)CF [caspase-6 inhibitor, Z-VEID-FMK] (Cbz-VE(OMe)ID(OMe)-CH2F), the “inhibitory rate” value (QYC cells) is reported as 28%.

With COC(=O)CC[C@H](NC(=O)[C@H](CC(=O)OC)NC(=O)OCc1ccccc1)C(=O)N[C@H](C(=O)N[C@@H](CC(=O)OC)C(=O)CF)C(C)C [caspase-3 inhibitor, Z-DEVD-FMK] the “inhibitory rate” value (QYC cells) was 1%.

COC(=O)CCC(NC(=O)C(NC(=O)C(C)NC(=O)OCc1ccccc1)C(C)C)C(=O)NC(CC(=O)OC)C(=O)CF (stereo not drawn) [caspase-10 inhibitor, Z-AVED-FMK] (Cbz-AVE(OMe)D(OMe)-CH2F; configuration not given here) was tested, and the “inhibitory rate” value (QYC cells) was 52%.

COC(=O)C[C@H](NC(=O)[C@H](C)NC(=O)[C@@H](NC(=O)OCc1ccccc1)C(C)C)C(=O)CF [pan-caspase inhibitor, Z-VAD-FMK] (Cbz-Val-Ala-Asp(OMe)-CH2F) was tested, and the “inhibitory rate” value (QYC cells) was 72%.

In the case of COC(=O)C[C@H](NC(=O)[C@H](C)NC(=O)[C@@H](NC(=O)[C@H](CC(=O)OC)NC(=O)[C@@H](NC(=O)OCc1ccccc1)C(C)C)C(C)C)C(=O)CF [caspase-2 inhibitor, Z-VDVAD-FMK] (Cbz-VD(OMe)VAD(OMe)-CH2F), the “inhibitory rate” value (QYC cells) is reported as 1%.

With COC(=O)CC[C@H](NC(=O)[C@H](CCC(=O)OC)NC(=O)[C@H](CC(C)C)NC(=O)OCc1ccccc1)C(=O)N[C@@H](CC(=O)OC)C(=O)CF [caspase-13 inhibitor, Z-LEED-FMK] (Cbz-LE(OMe)E(OMe)D(OMe)-CH2F) the “inhibitory rate” value (QYC cells) was 15%.

B1: huSM5-1: human SM5-1 specific monoclonal antibody from phage library; VH SEQ ID NO:9, VL SEQ ID NO:10 (antibody, listed as Homo Sapiens, V domains shown)
VH: QVQLVESGGGVVQPGCSLRLSCSSSGYTFTSYTMHWVRQAPGKGLEWIGYINPYNDGGKYNEKFKWRFSISSDKSKNTLFLQSDSLTPEDTGVYYCARGSRYDWYGDYWGQGTPVTVSS
VL: DIQMTQSPSSLSGSVGDRVTITCDSSQSVLYSSKDDNYLAWYQQGPGKAPSLLIYYASDRESDVPSRFSGSGSGDDYTLTISSLQPEDAATYYCHQWFSSYTFDQGTKLNITR
In the case of B1, the “Cell survival (%)” value (melanoma cell line A2058 [1]; huSM5-1 addition 1 μl (1 μg/μl)) is reported as 87.8%, the “Cell survival (%)” value (melanoma cell line A2058 [1]; huSM5-1 addition 5 μl (1 μg/μl)) is reported as 68.8% and the “Cell survival (%)” value (melanoma cell line A2058 [1]; huSM5-1 addition 10 μl (1 μg/μl)) is reported as 53.2%. The “Cell survival (%)” value (melanoma cell line A2058 [1]; huSM5-1 addition 20 μl (1 μg/μl)) was 42.6%, the “Cell survival (%)” value (melanoma cell line A2058 [1]; huSM5-1 addition 50 μl (1 μg/μl)) was 32.6% and the “Cell survival (%)” value (melanoma cell line A2058 [1]; huSM5-1 addition 100 μl (1 μg/μl)) was 22.6%. For the same molecule, the “Caspase-10 activity (%)” value (caspase-10 [2]; 50 ng/ml huSM5-1, 48 h) was 13%, the “Caspase-10 activity (%)” value (caspase-10 [2]; 50 ng/ml huSM5-1, 96 h) was 51% and the growth inhibition ([3]; 1 ng/ml, 24 h) was 7%. It also gave a growth inhibition ([3]; 1 ng/ml, 48 h) of about 5%, a growth inhibition ([3]; 1 ng/ml, 72 h) of 10% and a growth inhibition ([3]; 1 ng/ml, 96 h) of 2.5%. For the same molecule, the growth inhibition ([3]; 10 ng/ml, 24 h) was 11%, the growth inhibition ([3]; 10 ng/ml, 48 h) was about 17% and the growth inhibition ([3]; 10 ng/ml, 72 h) was 19%. The growth inhibition ([3]; 10 ng/ml, 96 h) was 11%, the growth inhibition ([3]; 50 ng/ml, 24 h) was 29% and the growth inhibition ([3]; 50 ng/ml, 48 h) was “about 28%”. For the same molecule, the growth inhibition ([3]; 50 ng/ml, 72 h) was 43%, the growth inhibition ([3]; 50 ng/ml, 96 h) was 36% and the “Optical adsorption (%)” value (melanoma cell line A2058 [4]; huSM5-1 addition 1 ul (1 μg/μl)) was 96.3%. For the same molecule, the “Optical adsorption (%)” value (melanoma cell line A2058 [4]; huSM5-1 addition 5 ul (1 μg/μl)) was 84.9%, the “Optical adsorption (%)” value (melanoma cell line A2058 [4]; huSM5-1 addition 10 ul (1 μg/μl)) was 66.2% and the “Optical adsorption (%)” value (melanoma cell line A2058 [4]; huSM5-1 addition 20 ul (1 μg/μl)) was 47.7%. For the same molecule, the “Optical adsorption (%)” value (melanoma cell line A2058 [4]; huSM5-1 addition 50 ul (1 μg/μl)) was 33.6%, the “Optical adsorption (%)” value (melanoma cell line A2058 [4]; huSM5-1 addition 100 ul (1 μg/μl)) was 20.1% and the “Caspase-10 activity (%)” value (caspase-10 [5]; 50 ng/ml huSM5-1, 48 h) was 17%. For the same molecule, the “Caspase-10 activity (%)” value (caspase-10 [5]; 50 ng/ml huSM5-1, 72 h) was 38% and the “Caspase-10 activity (%)” value (caspase-10 [5]; 50 ng/ml huSM5-1, 96 h) was 28%.
